# According to patent publication US20040141918:
# Test system: Int6 protein expressed in bacteria using the QUIA Express Type 4 vector, purified
# Sequence (chain, as listed by the source): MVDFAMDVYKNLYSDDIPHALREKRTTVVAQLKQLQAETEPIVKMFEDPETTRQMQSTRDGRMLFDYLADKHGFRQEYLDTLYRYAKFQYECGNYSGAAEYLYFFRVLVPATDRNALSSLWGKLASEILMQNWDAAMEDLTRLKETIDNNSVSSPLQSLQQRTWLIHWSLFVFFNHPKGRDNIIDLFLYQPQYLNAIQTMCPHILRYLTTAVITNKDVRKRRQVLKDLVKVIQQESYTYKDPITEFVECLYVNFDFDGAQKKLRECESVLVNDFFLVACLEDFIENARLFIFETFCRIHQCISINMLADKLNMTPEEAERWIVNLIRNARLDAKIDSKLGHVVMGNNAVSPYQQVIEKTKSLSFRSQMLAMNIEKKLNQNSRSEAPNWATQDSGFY
substance,measurement,value
protein kinase C,phosphorylation by PKC,shown to be phosphorylated by PKC (data not shown)
